Data from PMC3897223 (Biochemistry, 2013).
Where no end group is shown, it is not given here.

Target: T1, AtsB, anaerobic sulfatase maturating enzyme from Klebsiella pneumoniae, wild type, reconstituted (Klebsiella pneumoniae, UniProt Q9X758 1-395)
T1 sequence (looked up): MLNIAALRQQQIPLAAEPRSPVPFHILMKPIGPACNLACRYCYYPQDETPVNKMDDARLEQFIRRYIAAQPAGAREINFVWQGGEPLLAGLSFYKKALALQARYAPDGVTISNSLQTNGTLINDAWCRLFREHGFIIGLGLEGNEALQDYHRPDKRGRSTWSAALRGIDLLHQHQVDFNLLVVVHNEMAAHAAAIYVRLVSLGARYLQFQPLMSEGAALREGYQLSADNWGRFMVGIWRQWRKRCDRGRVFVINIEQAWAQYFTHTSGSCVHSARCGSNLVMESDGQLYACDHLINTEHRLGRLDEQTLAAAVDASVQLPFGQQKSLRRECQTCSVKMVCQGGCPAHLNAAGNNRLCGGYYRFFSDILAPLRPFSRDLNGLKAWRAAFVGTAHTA
Experiment: SEC

B1: Kp18Ser peptide substrate (peptide)
peptide: Ac-YYTSPMSAPARSMLLTGN
Q: Does B1 bind?
A: binds
